B1: rAPRc_(105–231), activation product derived from rAPRc_(99–231) by auto-processing (enzyme)
chain: YKWSTEVGEIIIARNRDGHFYINAFVNNVKIKFMVDTGASDIALTKEDAQKLGFDLTKLKYTRTYLTANGENKAAPITLNSVVIGKEFKNIKGHVGLGDLDISLLGMSLLERFKGFRIDKDLLILNY
B2: rAPRc_(99–231), intermediate of activation of RC1339/APRc (Aspartic Protease from Rickettsia conorii) soluble catalytic domain, C-terminal His-tag (domain or fragment)
chain: SALIPSYKWSTEVGEIIIARNRDGHFYINAFVNNVKIKFMVDTGASDIALTKEDAQKLGFDLTKLKYTRTYLTANGENKAAPITLNSVVIGKEFKNIKGHVGLGDLDISLLGMSLLERFKGFRIDKDLLILNY
notes: also called rAPRc99–231-His; APRc_(99–231)His; not shown: His6, C-terminal, kept

Target: the molecule itself
Experiment: cross-linking

Protein | stoichiometry N
B1 | 2
B2 | 2

Source: publication PMC4140852 (PLoS Pathogens, 2014)
